The Kd is the free concentration of one partner at which half of the binding sites on the other are occupied at equilibrium, for simple one-to-one binding. Read a high Kd as a looser complex.

For the test, the target named is CheR of Pectobacterium atrosepticum SCRI1043 (Pectobacterium atrosepticum SCRI1043). Put plainly: ITC.

B1: GWTTF pentapeptide (peptide)
peptide: GWTTF
In turn, B1 had a Kd of 90 nM.

B2: NWTTF pentapeptide (peptide)
peptide: NWTTF
Turning to B2, the Kd amounted to 1000 nM.

B3: DWTSF pentapeptide (peptide)
peptide: DWTSF
As for B3, the Kd worked out at 360 nM.

B4: NWETF pentapeptide (peptide)
peptide: NWETF
B4 gave a Kd of 480 nM. This Kd and that of the molecule before are within 1.5-fold of each other.

B5: GWEKF pentapeptide (peptide)
peptide: GWEKF
The molecule B5 registered a Kd of 200 nM.

B6: GWQRF pentapeptide (peptide)
peptide: GWQRF
As to B6, the equilibrium dissociation constant (Kd) stood at 540 nM. This Kd lies about 2.7-fold higher than the previous one.

B7: GWTTF pentapeptide with substitution of G by D at position 1 (peptide)
peptide: DWTTF
Take B7: the fold decrease in affinity against GWTTF was 2.6 fold.

Values taken from publication doi:10.1101/2024.03.07.583918.
